Source: patent US20190317095A1 (ALLERGAN, published 2019)

Columns and labels:
[1] = target: T1, SNAP25206, full-length SNAP25 (rat) (rat, UniProt P60881 1-206); assay: IHC, vehicle-treated rat glabrous skin (FIG. 8F-J)
[2] = target: T2, SNAP25206, full-length SNAP25 (human) (human, UniProt P60880 1-206); assay: IHC, human back skin biopsies +/- onabotulinumtoxinA (FIG. 9)
[3] = target: T1, SNAP25206, full-length SNAP25 (rat); assay: Western blot, rat embryonic cortical cell lysates +/- BoNT/A
[4] = target: T3, SNAP25180, BoNT/E-cleaved SNAP25 (human) (human, UniProt P60880 1-180); assay: Western blot, SiMa cell lysates treated with BoNT/A, BoNT/C, BoNT/E or no toxin
T3 construct: range 1-180

[5] = target: T4, SNAP25198, BoNT/C-cleaved SNAP25 (human) (human, UniProt P60880 1-198); assay: as above
T4 construct: range 1-198

[6] = target: T2, SNAP25206, full-length SNAP25 (human); assay: as above
[7] = target: SNAP25197, BoNT/A-cleaved SNAP25 (rat) (rat, UniProt P60881 1-197); assay: Western blot, summary (rat cortical lysates; SiMa lysates also run)
[8] = target: SNAP25197, BoNT/A-cleaved SNAP25 (human) (human, UniProt P60880 1-197); assay: Western blot, SiMa cell lysates +/- BoNT/A
Chain of SNAP25197, BoNT/A-cleaved SNAP25 (human) (P60880 1-197 limits assumed): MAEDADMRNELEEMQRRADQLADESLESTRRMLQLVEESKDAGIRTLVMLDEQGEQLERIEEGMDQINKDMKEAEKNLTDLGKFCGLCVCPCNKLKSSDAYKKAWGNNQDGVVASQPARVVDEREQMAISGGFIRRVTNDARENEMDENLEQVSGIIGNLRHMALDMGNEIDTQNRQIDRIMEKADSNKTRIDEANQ

T1 sequence (P60881 whole entry): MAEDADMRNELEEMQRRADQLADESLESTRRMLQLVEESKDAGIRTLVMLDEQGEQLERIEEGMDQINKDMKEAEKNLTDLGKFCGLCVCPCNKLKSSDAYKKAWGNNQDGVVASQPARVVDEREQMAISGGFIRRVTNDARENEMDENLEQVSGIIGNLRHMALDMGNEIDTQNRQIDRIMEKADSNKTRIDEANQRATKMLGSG
T2 sequence (P60880 whole entry): as the sequence (P60881 whole entry) above
T3 sequence (P60880 1-180 limits assumed): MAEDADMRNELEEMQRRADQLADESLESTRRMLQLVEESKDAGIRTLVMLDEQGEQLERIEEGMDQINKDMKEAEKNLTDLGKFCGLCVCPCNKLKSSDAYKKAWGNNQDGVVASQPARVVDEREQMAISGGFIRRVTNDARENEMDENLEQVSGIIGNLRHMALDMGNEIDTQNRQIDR
Chain of SNAP25197, BoNT/A-cleaved SNAP25 (rat) (P60881 1-197 limits assumed): as the sequence (P60880 1-197 limits assumed) above
T4 sequence (P60880 1-198 limits assumed): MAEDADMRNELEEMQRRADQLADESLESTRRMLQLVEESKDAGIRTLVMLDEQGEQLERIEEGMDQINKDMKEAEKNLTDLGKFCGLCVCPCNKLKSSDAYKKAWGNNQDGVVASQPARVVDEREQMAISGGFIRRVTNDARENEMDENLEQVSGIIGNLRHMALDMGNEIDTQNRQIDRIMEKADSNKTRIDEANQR

| Binder | binding result [1] | binding result [2] | binding result [3] | binding result [4] | binding result [5] | binding result [6] | binding result [7] | binding result [8] |
| --- | --- | --- | --- | --- | --- | --- | --- | --- |
| original non-recombinant 3C1A5 mAb purified from ascites (antibody, V domains shown) VH: QVKLQESGAELVKPGASVKISCKASGYTFTDHSIHWVKQKPGQGLEWIGYLFPGNGNFEYNEKFKGKATLTADKSSSTVYMYLNSLTSEDSAVYFCKRMGYWGQGTTVTVSS VL: DVVMTQTPLTLSVTIGQPASISCKSSQSLLNTNGKTYLTWLIQRPGQSPQRLIYLVSKLDSGVPDRFSGSGSGTDFTLKISRVEAEDLGVYYCLQSSHFPFTFGSGTKLEIK | no binding |  |  |  |  |  |  |  |
| Ab635 anti-SNAP25197 rMAb (Murine-3C1A5) (antibody) heavy: QVKLQESGAELVKPGASVKISCKASGYTFTDHSIHWVKQKPGQGLEWIGYLFPGNGNFEYNEKFKGKATLTADKSSSTVYMYLNSLTSEDSAVYFCKRMGYWGQGTTVTVSSAKTTPPSVYPLAPGSAAQTNSMVTLGCLVKGYFPEPVTVTWNSGSLSSGVHTFPAVLESDLYTLSSSVTVPSSPRPSETVTCNVAHPASSTKVDKKIVPRDCGCKPCICTVPEVSSVFIFPPKPKDVLTITLTPKVTCVVVDISKDDPEVQFSWFVDDVEVHTAQTQPREEQFNSTFRSVSELPIMHQDWLNGKEFKCRVNSAAFPAPIEKTISKTKGRPKAPQVYTIPPPKEQMAKDKVSLTCMITDFFPEDITVEWQWNGQPAENYKNTQPIMNTNGSYFVYSKLNVQKSNWEAGNTFTCSVLHEGLHNHHTEKSLSHSPGK light: not shown |  | no binding | no binding |  |  |  |  |  |
| Ab632 anti-SNAP25197 rMAb (Human-3C1A5) (antibody) heavy: not shown light: DVVMTQTPLTLSVTIGQPASISCKSSQSLLNTNGKTYLTWLIQRPGQSPQRLIYLVSKLDSGVPDRFSGSGSGTDFTLKISRVEAEDLGVYYCLQSSHFPFTFGSGTKLEIKRTVAAPSVFIFPPSDEQLKSGTASVVCLLNNFYPREAKVQWKVDNALQSGNSQESVTEQDSKDSTYSLSSTLTLSKADYEKHKVYACEVTHQGLSSPVTKSFNRGEC |  |  | no binding | no binding | no binding | no binding | binds | binds |
